Data as given in publication PMC2996049 (Structure (London, England : 1993), 2010).

Target: the molecule itself
Experiment: SEC

B1: Full-length His6-tagged NrpR from Methanococcus maripaludis (MmNrpR) (natural protein, UniProt Q6LZL7 1-536, looked up)
chain: MDSNIDVEILSILSEASAPVGAKIIADSLKDRGYDIGERAVRYHLKVLDENSLTKKLGYSGREITEKGIEELEKANISFRIGSVFSQVIEKLYLSDFPSKVLINTAKFEGDYKTIKEMVLRSFEAGYSVGDYLNIKKKGNTVSVETLCSITFDNFLLKNGIIPTPEYGGIVKFEDYEPVNFEGVIDFKSSSIDPLVAFIMQGKTDVIGVIENGEGLVPANFRVIPKSSEKQFETILKKDMLNSVLAYGTENVLGMNLNPEQIGVVLVGGLTPLCVPHESGYTADISAATQLKDISSMEKKTKGFLEAKKKKGKFKVTPVLSKMLSKMQTINYDIEDKKGNVVVNTAKIPIEYKEEAINALKDSYENKLAISDRLKVECDDKFLNAYTICSLTVDGVFLKNKIPVIPYYGGILEVKADKKRFIEAIDYEGTSLDPHEVFFNKADGKNYILAGIRKVPMSASEKLIELNEKLGWNSIIEIGRPNNDICGVRVEKCMFGITTIGGTNPFANIRKNNIPVEMKTLHKSIDYSELTHYDDI
  stoichiometry N: 2
